Legend:
ROCK2 = ROCK2 (UniProt O75116); test: GST-MLC2 pull-down from HeLa lysate; settings: sites Y118
MLC2 = MLC2 (UniProt P10916); test: His-PKM2 bead pull-down of GST-MLC2; settings: reference: WT His-PKM2 without Aurora B; sites T45

## MLC2 (from UniProt P10916) GST-MLC2 Y118F
ROCK2; reference: GST-MLC2 wild type
  binding against the reference: lost

## MLC2 (from UniProt P10916) GST-MLC2 with PKM2 and PEP
ROCK2; reference: GST-MLC2 with PKM2, no PEP
  binding against the reference: stronger

## PKM2 (from UniProt P14618) WT His-PKM2 treated with Aurora B
MLC2
  binding against the reference: stronger
